Results from article PMC11702601.

How the values were obtained:
Test in all cases: MST
[1] = target: T2 gp057-6×His (phage T2)
[2] = target: T2 gp006^I20A-6×His (phage T2)
[3] = target: T2 gp009-6×His (phage T2)
[4] = target: T2 gp006-6×His (phage T2)

Question: bNACHT11 (natural protein) was tested. Which Kd [1] did it give?
Answer: 149 nM

Question: And the Kd [2]?
Answer: 351 nM

Question: What about the Kd [3] of the same substance?
Answer: 269 nM

Question: And the Kd [4]?
Answer: 80 nM
